# According to paper PMC10397247:
# Assays:
# 4H1198-AA = target: T1, 4H1198-AA; assay: two-hybrid library CCmax; details: mean of both orientations;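 note: natural log of median RNA to DNA barcode read ratio; higher means stronger binding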
# T1 chain: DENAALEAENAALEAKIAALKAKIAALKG
# 4H1017-AA = target: T2, 4H1017-AA; assay: two-hybrid library CCmax;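 note: natural log of median RNA to DNA barcode read ratio; higher means stronger binding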
# T2 chain: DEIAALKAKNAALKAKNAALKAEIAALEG
# 4H2536-AA = target: T3, 4H2536-AA; assay: two-hybrid library CCmax; details: mean of both orientations;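 note: natural log of median RNA to DNA barcode read ratio; higher means stronger binding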
# T3 chain: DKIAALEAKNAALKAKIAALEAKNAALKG
# 4H2211-AA = target: T4, 4H2211-AA; assay: two-hybrid library CCmax; details: mean of both orientations;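 note: natural log of median RNA to DNA barcode read ratio; higher means stronger binding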
# T4 chain: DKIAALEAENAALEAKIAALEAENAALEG
# 4H2614-AA = target: T5, 4H2614-AA; assay: two-hybrid library CCmax; details: mean of both orientations;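 note: natural log of median RNA to DNA barcode read ratio; higher means stronger binding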
# T5 chain: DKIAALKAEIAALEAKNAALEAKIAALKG
# 4H2238-AA = target: T6, 4H2238-AA; assay: two-hybrid library CCmax; details: mean of both orientations;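 note: natural log of median RNA to DNA barcode read ratio; higher means stronger binding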
# T6 chain: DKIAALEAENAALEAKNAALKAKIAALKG
# 4H1103-AA = target: T7, 4H1103-AA; assay: two-hybrid library CCmax; details: mean of both orientations
# T7 chain: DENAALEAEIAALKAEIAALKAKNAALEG
# 4H2935-AA = target: T8, 4H2935-AA; assay: two-hybrid library CCmax; details: mean of both orientations
# T8 chain: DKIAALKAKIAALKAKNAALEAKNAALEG
# 4H369-AA = target: T9, 4H369-AA; assay: two-hybrid library CCmax; details: mean of both orientations
# T9 chain: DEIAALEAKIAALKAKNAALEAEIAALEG
# 4H1082-AA = target: T10, 4H1082-AA; assay: two-hybrid library CCmax
# T10 chain: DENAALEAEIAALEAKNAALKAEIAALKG
# 4H1350-AA = target: T11, 4H1350-AA; assay: two-hybrid library CCmax; details: mean of both orientations
# T11 chain: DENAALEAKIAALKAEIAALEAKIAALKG
# 4H2608-AA = target: T12, 4H2608-AA; assay: two-hybrid library CCmax; details: mean of both orientations
# T12 chain: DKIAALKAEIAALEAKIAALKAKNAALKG
# 4H3922-AA = target: T13, 4H3922-AA; assay: two-hybrid library CCmax; details: mean of both orientations
# T13 chain: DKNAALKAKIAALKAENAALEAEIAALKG
# 4H2513-AA = target: T14, 4H2513-AA; assay: two-hybrid library CCmax; details: mean of both orientations
# T14 chain: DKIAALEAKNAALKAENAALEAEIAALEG
# 4H4033-AA = target: T15, 4H4033-AA; assay: two-hybrid library CCmax; details: mean of both orientations
# T15 chain: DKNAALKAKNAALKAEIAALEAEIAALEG
# 4H3664-AA = target: T16, 4H3664-AA; assay: two-hybrid library CCmax; details: mean of both orientations
# T16 chain: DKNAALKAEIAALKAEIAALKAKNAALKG
# 4H3605-AA = target: T17, 4H3605-AA; assay: two-hybrid library CCmax; details: mean of both orientations
# T17 chain: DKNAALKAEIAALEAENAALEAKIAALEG
# 4H2726-AA = target: T18, 4H2726-AA; assay: two-hybrid library CCmax; details: mean of both orientations
# T18 chain: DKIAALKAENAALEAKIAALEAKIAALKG
# 4H327-AA = target: T19, 4H327-AA; assay: two-hybrid library CCmax; details: mean of both orientations
# T19 chain: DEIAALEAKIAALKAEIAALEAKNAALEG
# 4H481-AA = target: T20, 4H481-AA; assay: two-hybrid library CCmax; details: mean of both orientations
# T20 chain: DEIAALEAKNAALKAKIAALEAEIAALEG
# 4H662-AA = target: T21, 4H662-AA; assay: two-hybrid library CCmax; details: mean of both orientations
# T21 chain: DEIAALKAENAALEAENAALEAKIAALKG
# 4H1405-AA = target: T22, 4H1405-AA; assay: two-hybrid library CCmax; details: mean of both orientations
# T22 chain: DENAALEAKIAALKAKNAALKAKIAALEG
# 4H3625-AA = target: T23, 4H3625-AA; assay: two-hybrid library CCmax; details: mean of both orientations
# T23 chain: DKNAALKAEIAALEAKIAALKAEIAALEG
# 4H55-AA = target: T24, 4H55-AA; assay: two-hybrid library CCmax; details: mean of both orientations
# T24 chain: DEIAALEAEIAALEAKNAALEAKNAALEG
# Core_IIIN-es_KKKK = target: T25, Core_IIIN-es_KKKK; assay: two-hybrid library CCmax; details: mean of both orientations
# T25 chain: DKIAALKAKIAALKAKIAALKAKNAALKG
# P4SC2 [1] = target: T26, P4SC2; assay: two-hybrid library CCmax; details: mean of both orientations
# T26 chain: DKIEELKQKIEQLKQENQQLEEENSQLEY
# P4SC2 [2] = target: T26, P4SC2; assay: two-hybrid library CCNG1
# Core_INII-es_KEEK = target: T27, Core_INII-es_KEEK; assay: two-hybrid library CCmax; details: mean of both orientations
# T27 chain: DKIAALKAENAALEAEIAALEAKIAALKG
# 4H953-bN = target: T28, 4H953-bN; assay: two-hybrid library CCNG1
# T28 chain: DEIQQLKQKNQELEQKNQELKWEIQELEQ
# O2-bA = target: T29, O2-bA; assay: two-hybrid library CCNG1
# T29 chain: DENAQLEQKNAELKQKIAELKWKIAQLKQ
# 4H454-bA = target: T30, 4H454-bA; assay: two-hybrid library CCNG1
# T30 chain: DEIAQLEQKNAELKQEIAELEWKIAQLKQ
# 4H3185-bA = target: T31, 4H3185-bA; assay: two-hybrid library CCNG1
# T31 chain: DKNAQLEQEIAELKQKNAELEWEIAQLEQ
# 4H2729-bA = target: T32, 4H2729-bA; assay: two-hybrid library CCNG1
# T32 chain: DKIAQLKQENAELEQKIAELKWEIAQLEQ
# 4H967-bA = target: T33, 4H967-bA; assay: two-hybrid library CCNG1
# T33 chain: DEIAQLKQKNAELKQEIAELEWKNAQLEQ
# 4H72-bA = target: T34, 4H72-bA; assay: two-hybrid library CCNG1
# T34 chain: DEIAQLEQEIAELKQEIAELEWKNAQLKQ
# 4H3855-bA = target: T35, 4H3855-bA; assay: two-hybrid library CCNG1
# T35 chain: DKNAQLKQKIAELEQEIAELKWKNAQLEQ
# 4H2442-bA = target: T36, 4H2442-bA; assay: two-hybrid library CCNG1
# T36 chain: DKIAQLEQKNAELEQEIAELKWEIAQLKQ
# 4H338-bA = target: T37, 4H338-bA; assay: two-hybrid library CCNG1
# T37 chain: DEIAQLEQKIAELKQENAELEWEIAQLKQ
# 4H3427-bA = target: T38, 4H3427-bA; assay: two-hybrid library CCNG1
# T38 chain: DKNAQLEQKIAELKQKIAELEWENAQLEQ
# 4H754-bA = target: T39, 4H754-bA; assay: two-hybrid library CCNG1
# T39 chain: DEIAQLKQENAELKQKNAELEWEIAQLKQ
# 4H331-bA = target: T40, 4H331-bA; assay: two-hybrid library CCNG1
# T40 chain: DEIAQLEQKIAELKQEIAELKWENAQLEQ
# 4H1446-bA = target: T41, 4H1446-bA; assay: two-hybrid library CCNG1
# T41 chain: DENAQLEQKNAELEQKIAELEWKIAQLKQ
# 4H1257-bA = target: T42, 4H1257-bA; assay: two-hybrid library CCNG1
# T42 chain: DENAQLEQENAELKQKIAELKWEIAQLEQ
# 4H4001-bA = target: T43, 4H4001-bA; assay: two-hybrid library CCNG1
# T43 chain: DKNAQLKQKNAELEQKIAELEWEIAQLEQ
# 4H717-bA = target: T44, 4H717-bA; assay: two-hybrid library CCNG1
# T44 chain: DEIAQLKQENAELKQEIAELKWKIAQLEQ
# 4H1828-bA = target: T45, 4H1828-bA; assay: two-hybrid library CCNG1
# T45 chain: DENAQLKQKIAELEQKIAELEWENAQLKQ
# 4H918-bA = target: T46, 4H918-bA; assay: two-hybrid library CCNG1
# T46 chain: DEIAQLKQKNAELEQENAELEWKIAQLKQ
# 4H2667-bA = target: T47, 4H2667-bA; assay: two-hybrid library CCNG1
# T47 chain: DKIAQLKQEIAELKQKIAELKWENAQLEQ
# 4H3112-bA = target: T48, 4H3112-bA; assay: two-hybrid library CCNG1
# T48 chain: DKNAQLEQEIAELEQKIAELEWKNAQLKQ
# 4H3782-bA = target: T49, 4H3782-bA; assay: two-hybrid library CCNG1
# T49 chain: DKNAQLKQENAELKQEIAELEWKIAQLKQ
# 4H953-bA = target: T50, 4H953-bA; assay: two-hybrid library CCNG1
# T50 chain: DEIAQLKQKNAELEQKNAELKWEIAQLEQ
# 4H883-bA = target: T51, 4H883-bA; assay: two-hybrid library CCNG1
# T51 chain: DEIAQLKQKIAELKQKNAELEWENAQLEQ
# 4H687-bA = target: T52, 4H687-bA; assay: two-hybrid library CCNG1
# T52 chain: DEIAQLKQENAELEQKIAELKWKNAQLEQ
# 4H607-bA = target: T53, 4H607-bA; assay: two-hybrid library CCNG1
# T53 chain: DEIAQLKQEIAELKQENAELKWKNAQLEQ
# 4H908-bA = target: T54, 4H908-bA; assay: two-hybrid library CCNG1
# T54 chain: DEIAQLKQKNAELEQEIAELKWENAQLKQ
# 4H2576-bA = target: T55, 4H2576-bA; assay: two-hybrid library CCNG1
# T55 chain: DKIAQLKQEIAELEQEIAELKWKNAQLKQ
# 4H568-bA = target: T56, 4H568-bA; assay: two-hybrid library CCNG1
# T56 chain: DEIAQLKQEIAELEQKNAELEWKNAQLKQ
# 4H1845-bA = target: T57, 4H1845-bA; assay: two-hybrid library CCNG1
# T57 chain: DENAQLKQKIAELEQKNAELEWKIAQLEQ
# 4H3354-bA = target: T58, 4H3354-bA; assay: two-hybrid library CCNG1
# T58 chain: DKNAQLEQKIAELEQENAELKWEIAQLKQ
# 4H2618-bA = target: T59, 4H2618-bA; assay: two-hybrid library CCNG1
# T59 chain: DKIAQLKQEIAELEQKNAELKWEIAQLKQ
# 4H797-bA = target: T60, 4H797-bA; assay: two-hybrid library CCNG1
# T60 chain: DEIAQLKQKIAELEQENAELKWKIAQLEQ
binder,measurement,setting,value
DEIAALKAKNAALKAKNAALKAEIAALEG [4H1017-AA],interaction score,4H1198-AA,0.565
same,interaction score,4H1017-AA,-1.79
same,interaction score,4H2536-AA,-1.48
same,interaction score,4H2211-AA,-1.35
same,interaction score,4H2614-AA,0.0732
same,interaction score,4H2238-AA,1.64
same,interaction score,4H1103-AA,-1.61
same,interaction score,4H2935-AA,-3.83
same,interaction score,4H369-AA,-1.44
same,interaction score,4H1082-AA,-2.19
same,interaction score,4H1350-AA,-1.39
same,interaction score,4H2608-AA,-1.64
same,interaction score,4H3922-AA,-0.887
same,interaction score,4H2513-AA,-1.22
same,interaction score,4H4033-AA,-2.3
same,interaction score,4H3664-AA,-1.53
same,interaction score,4H3605-AA,0.203
same,interaction score,4H2726-AA,0.98
same,interaction score,4H327-AA,-1.46
same,interaction score,4H481-AA,-1.63
same,interaction score,4H662-AA,2.48
same,interaction score,4H1405-AA,-1.79
same,interaction score,4H3625-AA,-1.94
same,interaction score,4H55-AA,-1.6
DEIAALEAEIAALEAEIAALEAENAALEG [Core_IIIN-es_EEEE],interaction score,Core_IIIN-es_KKKK,1.39
DEIQQLEEEIRQLEQKNSQLKEKNQQLKY [P3SC2],interaction score,P4SC2 [1],0.206
same,interaction score,P4SC2 [2],1.12
DEIAALEAKNAALKAKIAALKAEIAALEG [Core_INII-es_EKKE],interaction score,Core_INII-es_KEEK,2.32
DENAQLEQENAELKQKIAELKWEIAQLEQ [4H1257-bA],interaction score,4H953-bN,-2.6
same,interaction score,O2-bA,-1.33
same,interaction score,4H454-bA,1.77
same,interaction score,4H3185-bA,-1.37
same,interaction score,4H2729-bA,-0.154
same,interaction score,4H967-bA,-1.12
same,interaction score,4H72-bA,-1.15
same,interaction score,4H3855-bA,-0.705
same,interaction score,4H2442-bA,-0.983
same,interaction score,4H338-bA,-1.24
same,interaction score,4H3427-bA,-0.869
same,interaction score,4H754-bA,-1.15
same,interaction score,4H331-bA,-0.712
same,interaction score,4H1446-bA,-0.55
same,interaction score,4H1257-bA,-0.0608
same,interaction score,4H4001-bA,-0.102
same,interaction score,4H717-bA,-0.0683
same,interaction score,4H1828-bA,-0.782
same,interaction score,4H918-bA,-0.431
same,interaction score,4H2667-bA,-0.847
same,interaction score,4H3112-bA,-0.693
same,interaction score,4H3782-bA,2.01
same,interaction score,4H953-bA,-1.53
same,interaction score,4H883-bA,-1.18
same,interaction score,4H687-bA,-0.935
same,interaction score,4H607-bA,-1.24
same,interaction score,4H908-bA,-1.38
same,interaction score,4H2576-bA,0.908
same,interaction score,4H568-bA,-1.75
same,interaction score,4H1845-bA,-0.799
same,interaction score,4H3354-bA,-0.884
same,interaction score,4H2618-bA,-0.882
same,interaction score,4H797-bA,-0.933
